Experimental data: patent publication US20250152742A1, “COMPOSITIONS AND METHODS FOR NEUROLOGICAL DISEASES” (Trames Bio, Inc., priority 2022, published 2025)

System: engineered chimeric receptor SEQ ID NO: 33 and its mutants (human α7-nAChR ligand binding domain / human GlyRα1 ion pore domain) in Lenti-X 293T cells
Assay: YFP fluorescence quenching anion reporter plate reader assay (percent quench, EC50)
Assay type: cell-based
Details: for YFP fluorescence quenching using CNL001 (percent quench): receptor named in row; for YFP fluorescence quenching using Facinicline, 30 nM fac: ligand Facinicline 30 nM; for YFP fluorescence quenching using Facinicline, 300 nM fac: ligand Facinicline 300 nM; for YFP fluorescence quenching using Facinicline, 30 uM fac: ligand Facinicline 30 uM; for YFP fluorescence quenching using TC-6987, 1 uM tc6987: ligand TC-6987 1 uM; for YFP fluorescence quenching using TC-6987, 10 uM tc6987: ligand TC-6987 10 uM; for YFP fluorescence quenching using TC-6987, 500 uM tc6987: ligand TC-6987 500 uM; for YFP fluorescence quenching using Varenicline, 3 nM var: ligand Varenicline 3 nM; for YFP fluorescence quenching using Varenicline, 30 nM var: ligand Varenicline 30 nM; for YFP fluorescence quenching using Varenicline, 300 nM var: ligand Varenicline 300 nM; for YFP fluorescence quenching using Varenicline, 500 nM var: ligand Varenicline 500 nM; for YFP fluorescence quenching using Varenicline, 1 uM var: ligand Varenicline 1 uM
Method in brief: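 Percent quench compares mean YFP signal over the final 10 s with the 15 s baseline before ligand, added in iodide-containing extracellular solution (pH 7.2). Cells were LX293T carrying a YFP anion reporter, transiently transfected with the channel construct; plates were preincubated 30 min at 37 °C.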

[1] = 1 nM CNL001, first column so headed
[2] = 1 nM CNL001, second column so headed
[3] = 3 nM brd (TC-5619/Bradanicline)
[4] = 10 nM CNL001, first column so headed
[5] = 10 nM CNL001, second column so headed
[6] = 30 nM brd (TC-5619/Bradanicline)
[7] = 50 nM CNL001, first column so headed
[8] = 50 nM CNL001, second column so headed
[9] = 100 nM CNL001, first column so headed
[10] = 100 nM CNL001, second column so headed
[11] = 300 nM brd (TC-5619/Bradanicline)
[12] = 1 uM CNL001, first column so headed
[13] = 1 uM CNL001, second column so headed

B1: CODA217: engineered receptor: W77F in SEQ ID NO: 33 (protein)
chain: MRCSPGGVWLALAASLLHVSLQGEFQRKLYKELVKNYNPLERPVANDSQPLTVYFSLSLLQIMDVDEKNQVLTTNIFLQMSWTDHYLQWNVSEYPGVKTVRFPDGQIWKPDILLYNSADERFDATFHTNVLVNSSGHCQYLPPGIFKSSCPMDLKNFPMDVQTCKLKFGSWSYGGWSLDLQMQEADISGYIPNGEWDLVGIPGKRSERFYECCKEPYPDVTFTVTMRRRMGYYLIQMYIPSLLIVILSWISFWINMDAAPARVGLGITTVLTMTTQSSGSRASLPKVSYVKAIDIWMAVCLLFVFSALLEYAAVNFVSRQHKELLRFRRKRRHHKSPMLNLFQEDEAGEGRFNFSAYGMGPACLQAKDGISVKGANNSNTTNPPPAPSKSPEEMRKLFIQRAKKIDKISRIGFPMAFLIFNMFYWIIYKIVRREDVHNQ
modifications: synthetic sequence of chimeric LGIC
[1]
  YFP fluorescence quenching using CNL001 (percent quench): −22.273%
[2]
  YFP fluorescence quenching using CNL001 (percent quench): −19.415%
[3]
  YFP fluorescence quenching using TC-5619/Bradanicline (percent quench): −12.1%
[4]
  YFP fluorescence quenching using CNL001 (percent quench): −9.563%
[5]
  YFP fluorescence quenching using CNL001 (percent quench): 6.398%
[6]
  YFP fluorescence quenching using TC-5619/Bradanicline (percent quench): −14.72%
[7]
  YFP fluorescence quenching using CNL001 (percent quench): 61.938%
[8]
  YFP fluorescence quenching using CNL001 (percent quench): 66.837%
50 nM abt (ABT-126)
  YFP fluorescence quenching using ABT-126 (percent quench): 37.81%
[9]
  YFP fluorescence quenching using CNL001 (percent quench): 79.791%
[10]
  YFP fluorescence quenching using CNL001 (percent quench): 80.908%
100 nM CNL002
  YFP fluorescence quenching (percent quench): 67.81%
100 nM abt (ABT-126)
  YFP fluorescence quenching using ABT-126 (percent quench): 57.31%
100 nM azd0328
  YFP fluorescence quenching using AZD-0328 (percent quench): −7.57%
300 nM abt (ABT-126)
  YFP fluorescence quenching using ABT-126 (percent quench): 12.61%
300 nM azd0328
  YFP fluorescence quenching using AZD-0328 (percent quench): 7.08%
[11]
  YFP fluorescence quenching using TC-5619/Bradanicline (percent quench): −6.3%
[12]
  YFP fluorescence quenching using CNL001 (percent quench): 83.444%
[13]
  YFP fluorescence quenching using CNL001 (percent quench): 83.905%
1 uM CNL002
  YFP fluorescence quenching (percent quench): 69.42%
1 uM abt (ABT-126)
  YFP fluorescence quenching using ABT-126 (percent quench): 66.05%
10 uM ach (acetylcholine)
  YFP fluorescence quenching (percent quench): −5.86%
30 uM CNL002
  YFP fluorescence quenching (percent quench): 73.64%
30 uM azd0328
  YFP fluorescence quenching using AZD-0328 (percent quench): 81.59%
100 uM ach (acetylcholine)
  YFP fluorescence quenching (percent quench): 70.06%
1 mM ach (acetylcholine)
  YFP fluorescence quenching (percent quench): 68.71%
3 mM ach (acetylcholine)
  YFP fluorescence quenching (percent quench): 73.45%
  YFP fluorescence quenching using Facinicline, 30 nM fac: −10.14
  YFP fluorescence quenching using Facinicline, 300 nM fac: 68.29
  YFP fluorescence quenching using Facinicline, 30 uM fac: 87.35
  YFP fluorescence quenching using TC-6987, 1 uM tc6987: −10.35
  YFP fluorescence quenching using TC-6987, 10 uM tc6987: −13.93
  YFP fluorescence quenching using TC-6987, 500 uM tc6987: −7.54
First column
  YFP fluorescence quenching using Varenicline, 3 nM var: 5.662
  YFP fluorescence quenching using Varenicline, 30 nM var: 13.968
  YFP fluorescence quenching using Varenicline, 300 nM var: 16.183
  YFP fluorescence quenching using Varenicline, 500 nM var: 23.366
  YFP fluorescence quenching using Varenicline, 1 uM var: 34.69
Second column
  YFP fluorescence quenching using Varenicline, 3 nM var: 7.57
  YFP fluorescence quenching using Varenicline, 30 nM var: 19.079
  YFP fluorescence quenching using Varenicline, 300 nM var: 18.025
  YFP fluorescence quenching using Varenicline, 500 nM var: 19.206
  YFP fluorescence quenching using Varenicline, 1 uM var: 30.504

B2: CODA75: non-responding chimeric engineered receptor used as the negative control (protein)
chain: MRCSPGGVWLALAASLLHVSLQGEFQRKLYKELVKNYNPLERPVANDSQPLTVYFSLSLLQIMDVDEKNQVLTTNIWLQMSWTDHYLQWNVSEYPGVKTVRFPDGQIWKPDILLYNSADERFDATFHTNVLVNSSGHCQYLPPGIFKSSCYIDVRWFPFDVQHCKLKFGSWSYGGWSLDLQMQEADISGYIPNGEWDLVGIPGKRSERFYECCKEPYPDVTFTVTMRRRTGYYLIQMYIPSLLIVILSWISFWINMDAAPARVGLGITTVLTMTTQSSGSEIMPATSDSVPLIAQAIDIWMAVCLLFVFSALLEYAAVNFVSRQHKELLRFRRKRRHHKSPMLNLFQEDEAGEGRFNFSAYGMGPACLQAKDGISVKGANNSNTTNPPPAPSKSPEEMRKLFIQRAKKIDKISRIGFPMAFLIFNMFYWIIYKIVRREDVHNQ
modifications: synthetic sequence of chimeric LGIC
notes: non-responding chimeric engineered receptor used as the negative control
[1]
  YFP fluorescence quenching using CNL001 (percent quench): −8.496%
[2]
  YFP fluorescence quenching using CNL001 (percent quench): −2.266%
1 nM brd (TC-5619/Bradanicline)
  YFP fluorescence quenching using TC-5619/Bradanicline (percent quench): −13.39%
[3]
  YFP fluorescence quenching using TC-5619/Bradanicline (percent quench): −15.78%
[4]
  YFP fluorescence quenching using CNL001 (percent quench): 1.816%
[5]
  YFP fluorescence quenching using CNL001 (percent quench): −4.649%
10 nM brd (TC-5619/Bradanicline)
  YFP fluorescence quenching using TC-5619/Bradanicline (percent quench): −13.47%
[6]
  YFP fluorescence quenching using TC-5619/Bradanicline (percent quench): −16.41%
[7]
  YFP fluorescence quenching using CNL001 (percent quench): −5.922%
[8]
  YFP fluorescence quenching using CNL001 (percent quench): −5.597%
50 nM abt (ABT-126)
  YFP fluorescence quenching using ABT-126 (percent quench): −17.07%
[9]
  YFP fluorescence quenching using CNL001 (percent quench): −8.159%
[10]
  YFP fluorescence quenching using CNL001 (percent quench): −5.058%
100 nM CNL002
  YFP fluorescence quenching (percent quench): −7.94%
100 nM abt (ABT-126)
  YFP fluorescence quenching using ABT-126 (percent quench): −16.76%
100 nM azd0328
  YFP fluorescence quenching using AZD-0328 (percent quench): −8.83%
300 nM abt (ABT-126)
  YFP fluorescence quenching using ABT-126 (percent quench): −16.76%
300 nM azd0328
  YFP fluorescence quenching using AZD-0328 (percent quench): −11.15%
[11]
  YFP fluorescence quenching using TC-5619/Bradanicline (percent quench): −17.56%
500 nM abt (ABT-126)
  YFP fluorescence quenching using ABT-126 (percent quench): −14.68%
[12]
  YFP fluorescence quenching using CNL001 (percent quench): −4.272%
[13]
  YFP fluorescence quenching using CNL001 (percent quench): −1.281%
1 uM CNL002
  YFP fluorescence quenching (percent quench): −9.81%
1 uM abt (ABT-126)
  YFP fluorescence quenching using ABT-126 (percent quench): −16%
3 uM abt (ABT-126)
  YFP fluorescence quenching using ABT-126 (percent quench): −14.11%
10 uM abt (ABT-126)
  YFP fluorescence quenching using ABT-126 (percent quench): −13.98%
10 uM ach (acetylcholine)
  YFP fluorescence quenching (percent quench): −12.88%
30 uM CNL002
  YFP fluorescence quenching (percent quench): −15.27%
30 uM abt (ABT-126)
  YFP fluorescence quenching using ABT-126 (percent quench): −21.05%
30 uM ach (acetylcholine)
  YFP fluorescence quenching (percent quench): −18.67%
30 uM azd0328
  YFP fluorescence quenching using AZD-0328 (percent quench): −11.92%
50 uM abt (ABT-126)
  YFP fluorescence quenching using ABT-126 (percent quench): −21.35%
50 uM ach (acetylcholine)
  YFP fluorescence quenching (percent quench): −0.29%
100 uM abt (ABT-126)
  YFP fluorescence quenching using ABT-126 (percent quench): −24.12%
100 uM ach (acetylcholine)
  YFP fluorescence quenching (percent quench): −14.46%
300 uM ach (acetylcholine)
  YFP fluorescence quenching (percent quench): −16.31%
500 uM ach (acetylcholine)
  YFP fluorescence quenching (percent quench): −17.41%
1 mM ach (acetylcholine)
  YFP fluorescence quenching (percent quench): −16.46%
3 mM ach (acetylcholine)
  YFP fluorescence quenching (percent quench): −12.38%
5 mM ach (acetylcholine)
  YFP fluorescence quenching (percent quench): −20.88%
10 mM ach (acetylcholine)
  YFP fluorescence quenching (percent quench): −8.69%
  YFP fluorescence quenching using Facinicline, 30 nM fac: −11.68
  YFP fluorescence quenching using Facinicline, 300 nM fac: −10.55
  YFP fluorescence quenching using Facinicline, 30 uM fac: −5.25
  YFP fluorescence quenching using TC-6987, 1 uM tc6987: −11.79
  YFP fluorescence quenching using TC-6987, 10 uM tc6987: −14.31
  YFP fluorescence quenching using TC-6987, 500 uM tc6987: −19.65
Ligand Facinicline 100 nM
  YFP fluorescence quenching using Facinicline, 100 nM fac: 4.35
First column
  YFP fluorescence quenching using Varenicline, 3 nM var: 4.161
  YFP fluorescence quenching using Varenicline, 30 nM var: −5.173
  YFP fluorescence quenching using Varenicline, 300 nM var: −5.733
  YFP fluorescence quenching using Varenicline, 500 nM var: −10.35
  YFP fluorescence quenching using Varenicline, 1 uM var: −5.637
Second column
  YFP fluorescence quenching using Varenicline, 3 nM var: −6.216
  YFP fluorescence quenching using Varenicline, 30 nM var: −6.593
  YFP fluorescence quenching using Varenicline, 300 nM var: −7.312
  YFP fluorescence quenching using Varenicline, 500 nM var: −7.586
  YFP fluorescence quenching using Varenicline, 1 uM var: −3.757
